According to the nanobody polyreactivity screen of Harvey et al. (2022):

Assay: yeast display, Sf9 membrane polyspecificity reagent, FACS + sequencing; frameworks hold sequencing errors
Summary of the method: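 In a synthetic yeast display library (Saccharomyces cerevisiae BJ5465), nanobody expression was induced with galactose for 36–48 hours. FACS gates were set low and high (top ~1%) using anti-HA fluorescence for expression and streptavidin fluorescence for binding of the Sf9 membrane reagent. Each polyreactivity label is drawn from the gate of origin.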

Sequence | polyreactivity (PSR sort gate)
QVQLVESGGGLVQAGGSLRLSCAASGFIFGHNTMGWYRPAPGKERELVAAIDGGGGTSYADSVKGRFTISRDNAKNTVYLQMNSLKPEDTAVYYCAAYVAKGPLEYYYHYPYDYWGQGTQVTVSS | low polyreactivity
QVQLVESGGGLVKAGGSIRLSCAASGSIFTWYAMGWYRQAPGKESELVAAISEDGGSTYYADSVKGRFTISRDNAKNSVFLQMNSLKPEDTAVYYCATPVASVTGYDYWGQGTQVTVSS | low polyreactivity
QVQLVESGGGLVQAGGSLRLSCAASGRTFKKYAMGWFRQAPGKERELVAAITGSGGSTYYADSVKGRFTISRDNAKNTVYLQMNSLKPEDTADYYCAAYAYGVWHSQDGGNYWGQGTQVTVSS | low polyreactivity
QVQLVESGGGLVQAGGSLRLSCAASGITFVRYAMGWYRQAPGKERELVAVISRGGITNYADSVKGRFTISRDNAKNTVYLQMNSMKPEDTAVYYCAVRGRSYVRTYDYWGQGTQVTVSS | high polyreactivity
QDQLVESGGGLVQAGGSLRLSCAASGRTFAKSAMGWYRQAPGKERELVASISRRGGSTYYADSVKGRFTISRDNAKNTVYLQMNSLKPEDTAVYYCNAVVTVNGYDSWGQGTQVTVSS | high polyreactivity
QVQLVESGGGLVQEGGSLRLRCAASGRTFPINAMGWYRQAPGKERELVASIRWTDGTTYYADSVKGRFTISRDTAKNTVYLQMNSLKPEDTAVYYCAADAEGSASKYVYWGQGTQVTVSS | low polyreactivity
QVQLVESGGALVQEGGSHRLSCAASRRIFVVYAMGWYRQAPGKERELVAAISKRRGSTYYADSVKGRFTISRYNAKNTVYLQMKSQKPEDTAVYYCAVEGVIWSFWPYEYWGQGTQVTVSS | high polyreactivity
QVQLVESGGGLVQAGGSLRLSCAASGRIFLANAMGWSRQAPGKERELVAAISLSGGRTYYADSVKGRFTISRDNAKNTVYLQMNSLKPEDTAVYYCAAEFYPIRYYGGYDYWGQGTLVTVSS | low polyreactivity
QVQLVESGGGLVQAGGSLRLSCAASGFTFSFYAMGWYRQAPGKERELVAAIDRSGGSTYYADSVKGRFTISRDNAKNTVYLQMNSLKPEDTAVYYCAATVFYGYYYWGQGTQVTVSS | high polyreactivity
QVQLVESGGGLVQARGSLRLSCAASGSTFVGYAMGWYRQAPGKEREFVAAITRGGSTNYADSVKGRFTISRDNAKNTVYLQMNSLKPEDTAVYYCAARDRREGFNFDYWGQGTQVTVSS | low polyreactivity
QVQLVESGGGLVQAGGSLRLSCAASGYTLRYYAMGWYRQAPGKERELVAAITYSGGSTYYADSVKGRFTISRDHAKNTVYLQMNSLKPEDTAVYYCAADYRAPLDYWGQGTQVTVSS | low polyreactivity
QVHLVESGGGLVQAGGSLRLSCAASGSIFDVNAMGWYRQAPGKERQLVAAISDSGGSTYYADSVKGRFTISRDNAKNTVYLQMNSLKPEDTAVYYCNADWSSYNYYDFDYWGQGTQVTVSS | low polyreactivity
QVQLVESGGGLVQAGGSLRLSCAASGRIFPWNTMGWYRQAPGKERELVAGINNGDRTYYADSVKGRFTISRDNENNTVYLQMNSLKPEDTAVYYCAARSPPSAYTYTTWEYDYWGQGTQVTVSS | low polyreactivity
QVQLVESGGGLVQAGASLRLSCAASGYIYPKYGMGWYIQAPGKERELVAAITGSGGSTYYADSVMGRITISRDNAKNTVYLHMNSLKPEDTAVYYCAKRSWIEYDYWGQGTQVTVSS | low polyreactivity
QVQLVESGGGLVQAGGSLRLSCAASGRIFGVYAMGCYRQATGKERELVATNTSGGSTSYADSVKGRFTISRDNAKNPVYLQMNSLKPEDTAVYYCNAPYSFFWQQMNYWGQGTQETVSS | low polyreactivity
QVQLVESGGGLVHAGGSLRLSCAASGIIFYLYAMGWYRQAPGKERELVAAISRRGVSTYYADSVKGRFTISRDNAKNTVYLQMNSLKTEDTAVYYCAAAGFGYTGEEYWGQGTQVTVSS | high polyreactivity

Sequence | polyreactivity (PSR sort gate)
QVQLVESGGGLVQAGGSLRLSCAASGNIFSYNAMAWYRQAPGKERELVAAITTSSGRTYYADSVKGRFTISRDIAKNTVYLQMNSLKPEVTAVYYCNAVQRYQMGYWGQGTQVTVSS | high polyreactivity
QVQLVESGGGLVQAGGSLRLSCAASGSIFPYYAMGWYRQAPGKERELVAAITGAGSTNYADSVKGRFTISRDNAKNTVYLQRNSLKPEDTAVYYCAADFGSPDKWRDWYDYWGQGTQVTVSS | low polyreactivity
QVQLVESGVGSVQAGGSLRLSCAASGATFPGNAMGWYRQAPGKERELVAAIRDRGTSTYDADSVKGRFTISRDNAKNTVYLQMNSLKPEDTAVYYCAAASRVAKGRWRLYDYWGQGTQVTLSS | high polyreactivity
QVQLVESGGGLVQAGGSLRLSCAASGFTFGPNTMGWYRQAPGKERELVAAISARGGRTYYADSVKGRFTISRDTAKNTVYLQMNSLKPEDTAVYYCAAPGYVRTGVTYGGYYWGQGTQVTVSS | high polyreactivity
QVQLVESGGGLVQAGGSLRLSCAASGRIFWRYAMGWYRQAPGKERELVAGISASGGSTFYADSVKGRFTISRDNAKNTVYLQMNSLKPEDTAVYYCAAVSRYIWYSARESYYWGQGTQVTVSS | high polyreactivity
QVQLVESGGGLDQAGGSLRLSCAASGRTFRNYVMGWYRQAPGKERELVAAISRSGGSTYYADSVKGRFTISRDNAKNSVYLQMNSLKPEDTAVYYCNTVTTYDVEYWGQGTQVTVSS | high polyreactivity
QVQLEESGGGLVQAGGSLRLSCAASGITFSRYAMGWYRQATGKERELVARISSSGGSTNYADSVKGRFTISRDNAKNTVYLQMNSLKPEDSAVYYCAVATRGKVARRVTFDYWGQGTQVTVSS | high polyreactivity
QVQLVESGGGLLQAGGSLRLSCAASGFIFRGYNMGWYRQAPGKERELVAAITTTSSTYYADSVKGRFTISRDNAKNTVYLQMNSLKPEDTAVYYCAALFYRYGYLYNYWGQGTQVTVSS | high polyreactivity
QVQLVESGGGLVQAGGSLRLSCDASGGIFFYNTLRCSRQAPGKERELVAAITTNGDSTYYADSVKGRFTISRDNAKYTVYLQMNSLKPVDTAVYYCATPLELFASFSFSHYVYLFDSWGQGTQVNVSS | low polyreactivity
QVQLVESGGGLVQAGGSLRLSCAASGRTFTRYAMGWYRQAPGKERELVAAISGGGGSTYYADSVKGRFTISRDNAKNTVYLQMNSLKPEDTAVYYCAADVTYGTKWAYDYWGQGTQVTVSS | high polyreactivity
QVQLVESGGGLDQAGGSLRLSCAASGVNAMGWYRQAPGKEREFVAAITSIGGSTYYADSVKGRFTISRDNAKNTVYLQMNRLKPEDTAVYYCNPDSGPVKVSPLYESWGQGTQVTVSS | low polyreactivity
QVQLVESGGGLVQAGGSLRLSCAASGSIFAQNAMGWYRQAPGKERELVAAITSGGSTYYADSVKGRFTISRDNAKNTVYLQMNSLKPEDTAVYYCAARGWGPFYQYYYLGQGTQVTVSS | high polyreactivity
QVQLVESGGGIVQAGGSLRLSCAASGITFDLYAMGWSRQAPGKERELVAASTYYADSVKWRFTISRDYAKNTVYLQMNSLKPEDTAVYYCITREPVTSDYWGLGTQVTVSS | high polyreactivity
QVQLVESGGGLVQAGGRLRLSCAPSGSTFHSNDMGWYRQAPGKERELVAAITWSGARTYYVDSVKGRFTISRDNAKNTVYLQMNSLKPEDTAVYSCAKKAPSDRNNYWGQGTQVTVSS | high polyreactivity
QVQLVESGGGIVQEGGSLRLSCAASGRIFGTNAMGWYRQAPGKERELVATITRGGGNTYYADSVKGRFTISRDNAKNTVYLQMKSLKPEDTAVYYCAAKFHRFAWYSHYDYWGQGTQVTVSS | low polyreactivity
QDQLVESRAGLVQAGGSLRLSCADTGNIFDFNAIGSYRQAPGKERELVAAISQRGTRTYYADSVKGRFTISRDNAKNTVYLQMKSLKPDYTAVYYCNRGGWRQYDSWGQGTQVTVSS | high polyreactivity
